Source: patent WO2019109974A1

Molecular target: hPD-L1(ECD)-mFc (human)
Assay: ELISA, hPD-L1-mFc coated

Chain of hPD-L1(ECD)-mFc (human) (chain, as listed by the source limits assumed): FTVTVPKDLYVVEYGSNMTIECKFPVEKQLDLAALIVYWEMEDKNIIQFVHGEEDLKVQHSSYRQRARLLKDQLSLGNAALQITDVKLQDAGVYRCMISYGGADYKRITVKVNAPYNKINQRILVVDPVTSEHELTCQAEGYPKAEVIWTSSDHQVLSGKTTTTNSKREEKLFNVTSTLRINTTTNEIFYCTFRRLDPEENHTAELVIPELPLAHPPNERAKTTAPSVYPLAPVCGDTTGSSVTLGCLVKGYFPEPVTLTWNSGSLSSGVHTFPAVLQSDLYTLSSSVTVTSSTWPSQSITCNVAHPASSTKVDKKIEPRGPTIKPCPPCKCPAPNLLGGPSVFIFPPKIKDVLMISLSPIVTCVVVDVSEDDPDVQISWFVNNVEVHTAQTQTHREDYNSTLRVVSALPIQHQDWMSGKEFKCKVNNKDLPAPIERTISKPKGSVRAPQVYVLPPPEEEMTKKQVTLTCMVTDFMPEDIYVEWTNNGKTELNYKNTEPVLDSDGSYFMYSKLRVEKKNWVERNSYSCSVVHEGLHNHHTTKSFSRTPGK

EC50: 0.142 µg/mL
Substance: Tecentriq (antibody)
